Source: the supplement of paper PMC5998384

Experiments:
HeLa Kyoto [1] = assay: solubility change mitosis vs G1/S (difference of NP-40 vs SDS log2 ratios) (log2 ratio difference); higher = more soluble in mitosis
HeLa Kyoto [2] = assay: thermal stability score vs G1/S (z-score of summed log2 fold changes over temperatures); higher = more thermally stable than in G1/S
HeLa Kyoto [3] = assay: melting temperature (median over replicates), in situ; higher = more thermally stable
HeLa Kyoto [4] = assay: solubility in G1/S (NP-40 vs SDS abundance) (log2 ratio); higher = more soluble; settings: cell cycle stage: G1/S
[5] = cell cycle stage: early G1 (4.5 h after nocodazole release)
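Wherever melting temperature (median over replicates), in situ is given: HeLa Kyoto cells synchronized by double thymidine or nocodazole block, proteins quantified by TMT10plex mass spectrometry, three independent biological replicates.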
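Wherever solubility change mitosis vs G1/S (difference of NP-40 vs SDS log2 ratios) is given: synchronized HeLa Kyoto cells (double thymidine block for G1/S, nocodazole release for mitosis), protein amounts in NP-40 versus SDS lysates quantified by mass spectrometry, three biological replicates.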
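Wherever solubility in G1/S (NP-40 vs SDS abundance) is given: HeLa Kyoto cells arrested at G1/S by double thymidine block, proteins quantified by TMT10plex mass spectrometry in mild NP-40 versus SDS extracts, three biological replicates.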
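Wherever thermal stability score vs G1/S (z-score of summed log2 fold changes over temperatures) is given: synchronized HeLa Kyoto cells, proteins quantified by TMT10plex mass spectrometry, three biological replicates, mitosis taken 0.5 h after nocodazole release, G1/S directly after double thymidine block.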

Chain of STK38 (chain, as listed by the source): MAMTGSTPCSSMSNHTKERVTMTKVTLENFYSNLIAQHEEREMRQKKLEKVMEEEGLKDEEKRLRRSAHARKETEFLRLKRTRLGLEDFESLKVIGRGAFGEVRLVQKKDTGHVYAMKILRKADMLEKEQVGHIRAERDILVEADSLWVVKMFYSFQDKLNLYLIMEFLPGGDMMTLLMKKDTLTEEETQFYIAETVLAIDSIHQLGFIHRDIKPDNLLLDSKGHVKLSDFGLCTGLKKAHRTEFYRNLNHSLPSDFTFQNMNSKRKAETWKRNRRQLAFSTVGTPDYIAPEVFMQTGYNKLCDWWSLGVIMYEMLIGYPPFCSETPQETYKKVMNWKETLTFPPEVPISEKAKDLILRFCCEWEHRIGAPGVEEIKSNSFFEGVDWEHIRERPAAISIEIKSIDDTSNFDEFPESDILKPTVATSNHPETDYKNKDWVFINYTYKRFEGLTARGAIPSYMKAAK

Row | Substance | solubility change mitosis (log2) (HeLa Kyoto [1]) | thermal stability score (HeLa Kyoto [2]; [5]) | thermal stability score (HeLa Kyoto [2]; cell cycle stage: mitosis) | melting temperature (HeLa Kyoto [3]; cell cycle stage: G1/S) [°C] | melting temperature (HeLa Kyoto [3]; cell cycle stage: mitosis) [°C] | solubility in G1/S (log2) (HeLa Kyoto [4])
1 | MSGWADERGGEGDGRIYVGNLPTDVREKDLEDLFYKYGRIREIELKNRHGLVPFAFVRFEDPRDAEDAIYGRNGYDYGQCRLRVEFPRTYGGRGGWPRGGRNGPPTRRSDFRVLVSGLPPSGSWQDLKDHMREAGDVCYADVQKDGVGMVEYLRKEDMEYALRKLDDTKFRSHEGETSYIRVYPERSTSYGYSRSRSGSRGRDSPYQSRGSPHYFSPFRPY [SRSF9] | 0.706 | -3.88 | -3.72 | 50 | 50.6 | -0.159
2 | MAADSEPESEVFEITDFTTASEWERFISKVEEVLNDWKLIGNSLGKPLEKGIFTSGTWEEKSDEISFADFKFSVTHHYLVQESTDKEGKDELLEDVVPQSMQDLLGMNNDFPPRAHCLVRWYGLREFVVIAPAAHSDAVLSESKCNLLLSSVSIALGNTGCQVPLFVQIHHKWRRMYVGECQGPGVRTDFEMVHLRKVPNQYTHLSGLLDIFKSKIGCPLTPLPPVSIAIRFTYVLQDWQQYFWPQQPPDIDALVGGEVGGLEFGKLPFGACEDPISELHLATTWPHLTEGIIVDNDVYSDLDPIQAPHWSVRVRKAENPQCLLGDFVTEFFKICRRKESTDEILGRSAFEEEGKETADITHALSKLTEPASVPIHKLSVSNMVHTAKKKIRKHRGVEESPLNNDVLNTILLFLFPDAVSEKPLDGTTSTDNNNPPSESEDYNLYNQFKSAPSDSLTYKLALCLCMINFYHGGLKGVAHLWQEFVLEMRFRWENNFLIPGLASGPPDLRCCLLHQKLQMLNCCIERKKARDEGKKTSASDVTNIYPGDAGKAGDQLVPDNLKETDKEKGEVGKSWDSWSDSEEEFFECLSDTEELKGNGQESGKKGGPKEMANLRPEGRLYQHGKLTLLHNGEPLYIPVTQEPAPMTEDLLEEQSEVLAKLGTSAEGAHLRARMQSACLLSDMESFKAANPGCSLEDFVRWYSPRDYIEEEVIDEKGNVVLKGELSARMKIPSNMWVEAWETAKPIPARRQRRLFDDTREAEKVLHYLAIQKPADLARHLLPCVIHAAVLKVKEEESLENISSVKKIIKQIISHSSKVLHFPNPEDKKLEEIIHQITNVEALIARARSLKAKFGTEKCEQEEEKEDLERFVSCLLEQPEVLVTGAGRGHAGRIIHKLFVNAQRAAAMTPPEEELKRMGSPEERRQNSVSDFPPPAGREFILRTTVPRPAPYSKALPQRMYSVLTKEDFRLAGAFSSDTSFF [RAB3GAP1] | -0.113 | -0.345 | 0.335 | 48.9 | 49.4 | -0.0664
3 | MGLTKQYLRYVASAVFGVIGSQKGNIVFVTLRGEKGRYVAVPACEHVFIWDLRKGEKILILQGLKQEVTCLCPSPDGLHLAVGYEDGSIRIFSLLSGEGNVTFNGHKAAITTLKYDQLGGRLASGSKDTDIIVWDVINESGLYRLKGHKDAITQALFLREKNLLVTSGKDTMVKWWDLDTQHCFKTMVGHRTEVWGLVLLSEEKRLITGASDSELRVWDIAYLQEIEDPEEPDPKKIKGSSPGIQDTLEAEDGAFETDEAPEDRILSCRKAGSIMREGRDRVVNLAVDKTGRILACHGTDSVLELFCILSKKEIQKKMDKKMKKARKKAKLHSSKGEEEDPEVNVEMSLQDEIQRVTNIKTSAKIKSFDLIHSPHGELKAVFLLQNNLVELYSLNPSLPTPQPVRTSRITIGGHRSDVRTLSFSSDNIAVLSAAADSIKIWNRSTLQCIRTMTCEYALCSFFVPGDRQVVIGTKTGKLQLYDLASGNLLETIDAHDGALWSMSLSPDQRGFVTGGADKSVKFWDFELVKDENSTQKRLSVKQTRTLQLDEDVLCVSYSPNQKLLAVSLLDCTVKIFYVDTLKFFLSLYGHKLPVICMDISHDGALIATGSADRNVKIWGLDFGDCHKSLFAHDDSVMYLQFVPKSHLFFTAGKDHKIKQWDADKFEHIQTLEGHHQEIWCLAVSPSGDYVVSSSHDKSLRLWERTREPLILEEEREMEREAEYEESVAKEDQPAVPGETQGDSYFTGKKTIETVKAAERIMEAIELYREETAKMKEHKAICKAAGKEVPLPSNPILMAYGSISPSAYVLEIFKGIKSSELEESLLVLPFSYVPDILKLFNEFIQLGSDVELICRCLFFLLRIHFGQITSNQMLVPVIEKLRETTISKVSQVRDVIGFNMAGLDYLKRECEAKSEVMFFADATSHLEEKKRKRKKREKLILTLT [WDR3] | 0.614 | 2.25 | 3.44 | 50.2 | 50.9 | -1.64
4 | STK38 | -0.159 | 0.464 | 1.32 | 48.3 | 49.1 | -0.0452
5 | MPEAPPLLLAAVLLGLVLLVVLLLLLRHWGWGLCLIGWNEFILQPIHNLLMGDTKEQRILNHVLQHAEPGNAQSVLEAIDTYCEQKEWAMNVGDKKGKIVDAVIQEHQPSVLLELGAYCGYSAVRMARLLSPGARLITIEINPDCAAITQRMVDFAGVKDKVTLVVGASQDIIPQLKKKYDVDTLDMVFLDHWKDRYLPDTLLLEECGLLRKGTVLLADNVICPGAPDFLAHVRGSSCFECTHYQSFLEYREVVDGLEKAIYKGPGSEAGP [COMT] | -0.128 | 3.01 | 5.26 | 52.9 | 54.2 | -0.0917
6 | MADDAGLETPLCSEQFGSGEARGCRAAADGSLQWEVGGWRWWGLSRAFTVKPEGRDAGEVGASGAPSPPLSGLQAVFLPQGFPDSVSPDYLPYQLWDSVQAFASSLSGSLATQAVLLGIGVGNAKATVSAATATWLVKDSTGMLGRIVFAWWKGSKLDCNAKQWRLFADILNDVAMFLEIMAPVYPICFTMTVSTSNLAKCIVSVAGGATRAALTVHQARRNNMADVSAKDSSQETLVNLAGLLVSLLMLPLVSGCPGFSLGCFFFLTALHIYANYRAVRALVMETLNEGRLRLVLKHYLQRGEVLDPTAANRMEPLWTGFWPAPSLSLGVPLHRLVSSVFELQQLVEGHQESYLLCWDQSQNQVQVVLNQKAGPKTILRAATHGLMLGALQGDGPLPAELEELRNRVRAGPKKESWVVVKETHEVLDMLFPKFLKGLQDAGWKTEKHQLEVDEWRATWLLSPEKKVL [C16ORF58] | -0.031 | -0.365 | 0.0232 | 53.7 | 53.8 | -0.224
7 | MYYKFSGFTQKLAGAWASEAYSPQGLKPVVSTEAPPIIFATPTKLTSDSTVYDYAGKNKVPELQKFFQKADGVPVYLKRGLPDQMLYRTTMALTVGGTIYCLIALYMASQPKNK [COX7A2L] | 0.107 | -2.74 | -1.52 | 55.7 | 52.3 | -0.0362
8 | MLDFLAENNLCGQAILRIVSCGNAIIAELLRLSEFIPAVFRLKDRADQQKYGDIIFDFSYFKGPELWESKLDAKPELQDLDEEFRENNIEIVTRFYLAFQSVHKYIVDLNRYLDDLNEGVYIQQTLETVLLNEDGKQLLCEALYLYGVMLLVIDQKIEGEVRERMLVSYYRYSAARSSADSNMDDICKLLRSTGYSSQPGAKRPSNYPESYFQRVPINESFISMVIGRLRSDDIYNQVSAYPLPEHRSTALANQAAMLYVILYFEPSILHTHQAKMREIVDKYFPDNWVISIYMGITVNLVDAWEPYKAAKTALNNTLDLSNVREQASRYATVSERVHAQVQQFLKEGYLREEMVLDNIPKLLNCLRDCNVAIRWLMLHTADSACDPNNKRLRQIKDQILTDSRYNPRILFQLLLDTAQFEFILKEMFKQMLSEKQTKWEHYKKEGSERMTELADVFSGVKPLTRVEKNENLQAWFREISKQILSLNYDDSTAAGRKTVQLIQALEEVQEFHQLESNLQVCQFLADTRKFLHQMIRTINIKEEVLITMQIVGDLSFAWQLIDSFTSIMQESIRVNPSMVTKLRATFLKLASALDLPLLRINQANSPDLLSVSQYYSGELVSYVRKVLQIIPESMFTSLLKIIKLQTHDIIEVPTRLDKDKLRDYAQLGPRYEVAKLTHAISIFTEGILMMKTTLVGIIKVDPKQLLEDGIRKELVKRVAFALHRGLIFNPRAKPSELMPKLKELGATMDGFHRSFEYIQDYVNIYGLKIWQEEVSRIINYNVEQECNNFLRTKIQDWQSMYQSTHIPIPKFTPVDESVTFIGRLCREILRITDPKMTCHIDQLNTWYDMKTHQEVTSSRLFSEIQTTLGTFGLNGLDRLLCFMIVKELQNFLSMFQKIILRDRTVQDTLKTLMNAVSPLKSIVANSNKIYFSAIAKTQKIWTAYLEAIMKVGQMQILRQQIANELNYSCRFDSKHLAAALENLNKALLADIEAHYQDPSLPYPKEDNTLLYEITAYLEAAGIHNPLNKIYITTKRLPYFPIVNFLFLIAQLPKLQYNKNLGMVCRKPTDPVDWPPLVLGLLTLLKQFHSRYTEQFLALIGQFICSTVEQCTSQKIPEIPADVVGALLFLEDYVRYTKLPRRVAEAHVPNFIFDEFRTVL [KIAA0196] | -0.117 | 0.232 | -0.00652 | 50.7 | 50 | -0.217
